Assay [1] deals with T1, Flag-tagged sTALL-1 (Flag-sTALL-1) (human, UniProt Q9Y275 134-285).
T1 construct: Secreted from 293 cells transfected with pSec-Flag-sTALL-1; used as conditioned medium or purified on an anti-Flag column; also called soluble TALL-1
Kind of assay: competition in flow cytometry on Bjab cells. The protocol: As described in Examples 2 and 3, cell staining was performed by sequential incubation (each 40 minutes) with anti-Flag monoclonal antibody (1 μg/ml) and RPE-conjugated goat anti-mouse IgG (1:200 dilution) in staining buffer (D-PBS containing 2% fetal bovine serum). Cells were washed two times with staining buffer following each incubation.

Assay [2] has as its target T1, Flag-tagged sTALL-1 (Flag-sTALL-1). The assay is described as follows: co-immunoprecipitation with anti-HA antibody, Western blot with anti-Flag antibody. The protocol:
(§1) 24 hours after transfection, cells were lysed in 1.0 ml lysis buffer (20 mM Tris [pH 7.5], 150 mM NaCl, 1% Triton, 1 mM EDTA, 10 μg/ml aprotinin, 10 μg/ml leupeptin, 1 mM PMSF). […] The mixtures were split into 2 aliquots and each aliquot was incubated with 0.5 μg anti-HA monoclonal antibody (BABCO, Berkeley, Calif.) (FIG. 6A; lanes 2,4,6,8) or control mouse IgG (FIG. 6A; lanes 1, 3, 5, 7), and 25 μl of a 1:1 slurry of GammaBind G Plus Sepharose at 4° C. for 3 hours. The sepharose beads were washed three times with 1 ml lysis buffer containing 500 mM NaCl. The precipitates were analyzed by Western blot with anti-Flag antibody (FIG. 6A; upper panel). […] All conditioned medium was supplemented with 10 mM Tris (pH 7.5), 100 mM NaCl, 1 mM EDTA, 10 μg/ml aprotinin, 10 μg/ml leupeptin, and 1 mM PMSF before TH immunoprecipitation experiments. Western blots were performed as described above.
A general note: Immunoblotting shows a protein as a band on a membrane.

In assay [3] the target is T2, Flag-tagged soluble TRAIL (Flag-sTRAIL) (UniProt P50591 95-281, limits assumed).
T2 construct: not shown: Flag tag
The description is as above. The protocol: as §1

The next assay addresses T3, TRAF2 (UniProt Q12933 1-501, limits assumed).
T3 sequence (looked up): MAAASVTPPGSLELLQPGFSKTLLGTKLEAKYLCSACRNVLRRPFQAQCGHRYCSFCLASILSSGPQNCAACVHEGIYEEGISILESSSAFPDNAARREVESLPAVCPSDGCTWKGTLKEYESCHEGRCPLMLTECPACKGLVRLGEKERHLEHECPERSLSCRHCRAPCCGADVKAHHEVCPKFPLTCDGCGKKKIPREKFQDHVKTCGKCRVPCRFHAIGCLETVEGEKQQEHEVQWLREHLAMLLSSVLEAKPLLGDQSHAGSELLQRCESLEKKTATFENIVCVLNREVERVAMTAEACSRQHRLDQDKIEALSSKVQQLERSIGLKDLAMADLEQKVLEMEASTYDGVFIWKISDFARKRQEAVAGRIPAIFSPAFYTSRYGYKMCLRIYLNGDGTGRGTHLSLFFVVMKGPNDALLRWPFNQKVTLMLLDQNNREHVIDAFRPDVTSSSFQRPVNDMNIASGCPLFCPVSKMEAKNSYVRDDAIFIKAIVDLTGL
Kind of assay: co-immunoprecipitation from transfected 293 cell lysates with anti-Flag antibody, Western blot with anti-HA antibody. The protocol: (§2) In the second portion of the experiment (See FIG. 10B), 293 cells were transfected with expression plasmids for HA-BCMA and the plasmids indicated in FIG. 10B. Transfected cell lysates were immunoprecipitated with anti-Flag antibody or control IgG. The immunoprecipitates were analyzed by Western blot with anti-HA antibody (FIG. 10B; upper panel).

The next assay has as its target T4, TRADD (UniProt Q15628 1-312, limits assumed).
T4 sequence (looked up): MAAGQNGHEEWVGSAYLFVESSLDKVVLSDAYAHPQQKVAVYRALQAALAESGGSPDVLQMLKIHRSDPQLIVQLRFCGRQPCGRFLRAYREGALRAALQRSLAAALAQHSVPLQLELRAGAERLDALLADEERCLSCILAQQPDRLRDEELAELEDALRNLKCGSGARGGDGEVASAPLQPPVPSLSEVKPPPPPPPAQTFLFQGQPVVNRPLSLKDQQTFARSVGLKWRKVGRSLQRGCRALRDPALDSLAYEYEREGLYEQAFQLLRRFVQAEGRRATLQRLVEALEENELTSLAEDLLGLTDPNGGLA
The description is as above. The protocol: as §2

In the next assay the target is T5, RIP (UniProt Q13546 1-671, limits assumed).
T5 sequence (looked up): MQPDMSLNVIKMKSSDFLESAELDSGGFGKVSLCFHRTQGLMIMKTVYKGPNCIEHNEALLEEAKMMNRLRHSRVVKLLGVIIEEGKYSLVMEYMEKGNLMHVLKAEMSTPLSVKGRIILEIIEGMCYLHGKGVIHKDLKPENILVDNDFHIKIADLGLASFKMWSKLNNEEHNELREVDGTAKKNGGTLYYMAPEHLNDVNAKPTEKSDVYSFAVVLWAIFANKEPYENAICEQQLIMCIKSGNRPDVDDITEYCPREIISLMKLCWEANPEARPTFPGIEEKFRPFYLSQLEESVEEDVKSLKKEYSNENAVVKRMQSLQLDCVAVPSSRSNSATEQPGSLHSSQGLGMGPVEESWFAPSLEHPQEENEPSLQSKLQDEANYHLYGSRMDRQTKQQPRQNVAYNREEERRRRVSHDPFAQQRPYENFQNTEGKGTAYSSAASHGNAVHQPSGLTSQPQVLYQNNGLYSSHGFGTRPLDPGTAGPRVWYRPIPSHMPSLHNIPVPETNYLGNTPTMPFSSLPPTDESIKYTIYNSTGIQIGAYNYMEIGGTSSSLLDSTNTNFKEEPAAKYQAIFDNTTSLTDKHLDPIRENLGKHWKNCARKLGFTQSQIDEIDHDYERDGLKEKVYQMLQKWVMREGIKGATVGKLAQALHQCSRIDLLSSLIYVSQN
The description is as above. The protocol:
as §2

T1 sequence (Q9Y275 134-285): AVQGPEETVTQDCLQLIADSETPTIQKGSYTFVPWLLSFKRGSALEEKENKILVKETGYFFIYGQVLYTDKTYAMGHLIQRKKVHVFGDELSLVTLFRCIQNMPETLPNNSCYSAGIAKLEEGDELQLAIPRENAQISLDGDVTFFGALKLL
T2 sequence (P50591 95-281 limits assumed): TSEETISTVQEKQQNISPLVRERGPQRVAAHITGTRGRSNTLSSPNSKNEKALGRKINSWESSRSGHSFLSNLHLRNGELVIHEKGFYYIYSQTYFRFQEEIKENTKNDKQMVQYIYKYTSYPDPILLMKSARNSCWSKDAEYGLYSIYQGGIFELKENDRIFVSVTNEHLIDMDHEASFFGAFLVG

B1: Flag-sBCMA-Fc secreted fusion protein (Fc fusion)
chain: MLQMAGQCSQNEYFDSLLHACIPCQLRCSSNTPPLTCQRYCNASVTNSVKGTNAILWTCLGL
notes: Used as 50-fold concentrated conditioned medium of transfected 293 cells; also called soluble BCMA; not shown: N-terminal Flag tag; Fc fragment of immunoglobulin G1 (IgG1), from the pCMV1-Flag-Fc plasmid
For B1, in assay [1], the binding result is listed as “binds”.

B2: C-terminal HA epitope-tagged BCMA (BCMA-HA) (receptor, not shown: small tags and cut ends)
chain: MLQMAGQCSQNEYFDSLLHACIPCQLRCSSNTPPLTCQRYCNASVTNSVKGTNAILWTCLGLSLIISLAVFVLMFLLRKISSEPLKDEFKNTGSGLLGMANIDLEKSRTGDEIILPRGLEYTVEECTCEDCIKSKPKVDSDHCFPLPAMEEGATILVTTKTNDYCKSLPAALSATEIEKSISAR
notes: also called HA-BCMA; B Cell Maturation Protein
Turning to B2, the binding result in assay [2] is on record as “binds”; in assay [3], “no binding (tested: 0.1 µg recombinant Flag-sTRAIL)”; with TRAF2, “no binding”; with TRADD, “no binding”; in the assay with RIP, “no binding”.
